{"source": "patent US20110159025", "key": {"HIV-2 capsid (CA)": {"molecular_target": "HIV-2 capsid (CA) (UniProt P04590)"}, "[1]": {"system": "HIV-1 capsid (CA), wild type, newly synthesized from HIVGFP (NL4-3 derived)"}, "[2]": {"molecular_target": "HIV-1 capsid mutant G89V (pLaiΔEnv-GFP3 G89V) (UniProt P03348)"}}, "data": [{"substance": "cyclophilin A (CypA)", "values": [{"measurement": "infection and activation of MDDC", "setting": "HIV-2 capsid (CA)", "result": "has the potential to infect and activate MDDC in a CypA-dependent manner"}, {"measurement": "CD86 expression in MDDC infected with HIVGFP(G)+SIVVLP(G), Cyclosporin A added at different times", "setting": "[1]", "result": "Up to 24 h, Cyclosporin A (CsA) reduces CD86 expression"}, {"measurement": "CD86 up-regulation in MDDC after shRNA knockdown of CypA", "setting": "[1]", "result": "prevented CD86 up-regulation following infection with HIV-1 (HDVIRESRFP(G), encoding the reporter RFP), but not following treatment with LPS"}, {"measurement": "MDDC activation (CD86 up-regulation) under Cyclosporin A", "setting": "[1]", "result": "prevented MDDC activation following infection with HIVGFP(G) and SIVVLP(G), but not following treatment with LPS"}, {"measurement": "CD86 expression in infected MDDC", "setting": "[2]", "result": "resulted in substantially reduced CD86 expression at similar levels of infection"}]}]}
